Measured values from PMC3799227.

How the values were obtained:
[1] = system: BaeR (Salmonella enterica serovar Typhimurium); experiment: EMSA
[2] = system: BaeR-P (phosphorylated BaeR) (Salmonella enterica serovar Typhimurium); experiment: EMSA

sodA promoter fragment A (wild type) was tested, and the binding [1] was 0.9 µM and the binding [2] was 0.6 µM.
